Assays:
Human CLEC12A-His = target: T1, Human CLEC12A-His (human, UniProt Q5QGZ9 65-265); assay: cell-based or functional assay
T1 sequence: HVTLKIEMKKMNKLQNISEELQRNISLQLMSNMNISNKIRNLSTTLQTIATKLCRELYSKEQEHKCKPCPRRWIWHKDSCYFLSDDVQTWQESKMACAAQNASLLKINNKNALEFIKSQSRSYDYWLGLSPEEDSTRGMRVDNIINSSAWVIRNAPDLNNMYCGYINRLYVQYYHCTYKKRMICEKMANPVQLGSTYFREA

[1] = target: T2, Human CD16a V158 (FcγRIIIa V158) (human, UniProt P08637 17-208, biotinylated (site not stated)); assay: SPR; biotinylated CD16a V158 captured on SA chip, TriNKET as analyte; 1:1 kinetic fit; after low pH hold, n=3
T2 construct: V158 is the allele name in mature numbering; also called hCD16aV; hCD16a V158
T2 sequence (P08637 17-208 F176V limits assumed): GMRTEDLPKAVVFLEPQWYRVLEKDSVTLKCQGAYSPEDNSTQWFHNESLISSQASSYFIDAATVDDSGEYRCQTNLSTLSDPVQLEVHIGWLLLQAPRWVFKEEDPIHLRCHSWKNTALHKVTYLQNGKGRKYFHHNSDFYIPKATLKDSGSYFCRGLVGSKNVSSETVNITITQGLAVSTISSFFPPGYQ

EC50 (nM), lysis of CLEC12A+ PL21 cells by KHYG-1-CD16a cells; HST formulation, 40 C, 4 wks (Human CLEC12A-His): 1.21 nM | EC50 (nM), lysis of CLEC12A+ PL21 cells by KHYG-1-CD16a cells; control sample (Human CLEC12A-His): 0.17 nM | Kd [1]: 210 nM | koff [1]: 0.0229 s⁻¹ | kon [1]: 109000 M⁻¹ s⁻¹
B1: F3'-1602 TriNKET (bispecific antibody, human IgG1, kappa)
chain: QLQLQESGPGLVKPSETLSLTCTVSGFSLTNYGLHWIRQPPGKCLEWIGVIWSGGKTDYNPSLKSRVTISKDTSKNQFSLKLSSVQAADTAVYYCAKYDYDDSLDYWGQGTLVTVSSGGGGSGGGGSGGGGSGGGGSDIQMTQSPSSLSASVGDRVTITCHASQNINFWLSWYQQKPGKAPKLLIYEASNLHTGVPSRFSGSGSGTRFTLTISSLQPEDIATYYCQQSHSYPLTFGCGTKLEIKGSDKTHTCPPCPAPELLGGPSVFLFPPKPKDTLMISRTPEVTCVVVDVSHEDPEVKFNWYVDGVEVHNAKTKPREEQYNSTYRVVSVLTVLHQDWLNGKEYKCKVSNKALPAPIEKTISKAKGQPREPRVYTLPPCRDELTKNQVSLTCLVKGFYPSDIAVEWESNGQPENNYKTTPPVLVSDGSFTLYSKLTVDKSRWQQGNVFSCSVMHEALHNHYTQKSLSLSPG
heavy: EVQLVESGGGLVKPGGSLRLSCAASGFTFSSYSMNWVRQAPGKGLEWVSSISSSSSYIYYADSVKGRFTISRDNAKNSLYLQMNSLRAEDTAVYYCARGAPIGAAAGWFDPWGQGTLVTVSSASTKGPSVFPLAPSSKSTSGGTAALGCLVKDYFPEPVTVSWNSGALTSGVHTFPAVLQSSGLYSLSSVVTVPSSSLGTQTYICNVNHKPSNTKVDKKVEPKSCDKTHTCPPCPAPELLGGPSVFLFPPKPKDTLMISRTPEVTCVVVDVSHEDPEVKFNWYVDGVEVHNAKTKPREEQYNSTYRVVSVLTVLHQDWLNGKEYKCKVSNKALPAPIEKTISKAKGQPREPQVCTLPPSRDELTENQVSLTCLVKGFYPSDIAVEWESNGQPENNYKTTPPVLDSDGSFFLYSWLTVDKSRWQQGNVFSCSVMHEALHNHYTQKSLSLSPG
light: DIQMTQSPSSVSASVGDRVTITCRASQGISSWLAWYQQKPGKAPKLLIYAASSLQSGVPSRFSGSGSGTDFTLTISSLQPEDFATYYCQQGVSFPRTFGGGTKVEIKRTVAAPSVFIFPPSDEQLKSGTASVVCLLNNFYPREAKVQWKVDNALQSGNSQESVTEQDSKDSTYSLSSTLTLSKADYEKHKVYACEVTHQGLSSPVTKSFNRGEC
notes: Trispecific F3' format: CLEC12A scFv-Fc paired with NKG2D Fab-Fc; Stressed and control samples of the stability studies are the same molecule; also called AB0237
